Measured values reported in patent US20230140868A1, “COMPOSITIONS AND METHODS FOR TREATING CANCER” (Alpha Beta Holdings, LLC, priority 2020, published 2023).

What was measured:
[1] = biological target: T1, human FcγRI (Homo sapiens, UniProt P12314); assay: Promega ADCC Reporter Bioassay, FcγRI (FIG. 7); assay type: cell-based; conditions: target cells: integrin avβ3-expressing human pancreatic cancer cells; Raji effector line with NFAT-induced luciferase
T1 construct: host or cells: Raji cell line (so in the source), stably expressing the receptor and NFAT-induced luciferase
T1 sequence (P12314 16-374): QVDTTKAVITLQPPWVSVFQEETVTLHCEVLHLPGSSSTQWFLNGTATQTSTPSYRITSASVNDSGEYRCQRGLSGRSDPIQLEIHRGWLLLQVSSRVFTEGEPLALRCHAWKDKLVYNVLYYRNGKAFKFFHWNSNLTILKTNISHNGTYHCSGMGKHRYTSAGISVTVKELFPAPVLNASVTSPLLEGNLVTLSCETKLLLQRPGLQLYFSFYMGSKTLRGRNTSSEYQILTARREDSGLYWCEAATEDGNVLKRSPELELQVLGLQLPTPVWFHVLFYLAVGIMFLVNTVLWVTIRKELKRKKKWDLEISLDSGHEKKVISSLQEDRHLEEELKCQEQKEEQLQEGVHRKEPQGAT
Procedure: (§1) Integrin avβ3-expressing human pancreatic cancer cells were utilized as “target cells” to assess the ability of anti-avβ3 antibodies to elicit effector cell activation using a Promega ADCC Reporter Bioassay in which “effector cell” activation is evaluated using a Raji cell line stably expressing the human FcγR I or III and NFAT-induced luciferase. Six antibody dilutions were tested per antibody, with FcγR activation shown as fold change relative to treatment with assay buffer containing no antibody.
(§2) Whereas NK cells utilize only FcγRIII/CD16 to engage antibody Fc regions, macrophages can utilize FcγRI/CD64.

[2] = biological target: integrin αvβ3 (Homo sapiens, UniProt P05106+P06756); assay: In vitro cell adhesion assay on fibrinogen (FIG. 8); assay type: cell-based
integrin αvβ3, sequence (P06756 31-889 limits assumed): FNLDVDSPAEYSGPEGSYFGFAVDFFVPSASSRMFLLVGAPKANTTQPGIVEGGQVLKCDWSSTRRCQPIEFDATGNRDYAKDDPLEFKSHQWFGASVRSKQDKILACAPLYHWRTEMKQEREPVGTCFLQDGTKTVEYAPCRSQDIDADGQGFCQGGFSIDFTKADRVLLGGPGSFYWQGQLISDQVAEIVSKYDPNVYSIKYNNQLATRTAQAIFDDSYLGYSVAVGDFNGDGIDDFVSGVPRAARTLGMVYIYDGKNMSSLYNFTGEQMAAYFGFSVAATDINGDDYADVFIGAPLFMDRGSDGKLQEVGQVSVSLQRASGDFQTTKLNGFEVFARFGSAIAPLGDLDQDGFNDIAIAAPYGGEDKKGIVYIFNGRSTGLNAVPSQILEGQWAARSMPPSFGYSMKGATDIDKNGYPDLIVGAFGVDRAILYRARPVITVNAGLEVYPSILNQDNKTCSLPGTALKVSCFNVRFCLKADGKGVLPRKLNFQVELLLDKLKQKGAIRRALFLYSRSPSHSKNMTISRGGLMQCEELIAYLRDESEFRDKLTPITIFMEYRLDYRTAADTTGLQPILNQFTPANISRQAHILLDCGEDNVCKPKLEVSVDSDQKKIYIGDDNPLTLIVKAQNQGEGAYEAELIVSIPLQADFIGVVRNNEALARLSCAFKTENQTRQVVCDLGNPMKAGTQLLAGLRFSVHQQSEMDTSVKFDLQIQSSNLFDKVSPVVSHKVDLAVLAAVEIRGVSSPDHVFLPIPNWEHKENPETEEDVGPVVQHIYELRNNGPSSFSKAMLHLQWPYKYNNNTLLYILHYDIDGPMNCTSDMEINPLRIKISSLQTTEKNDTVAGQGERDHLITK
integrin αvβ3, sequence (P06756 891-1048 limits assumed): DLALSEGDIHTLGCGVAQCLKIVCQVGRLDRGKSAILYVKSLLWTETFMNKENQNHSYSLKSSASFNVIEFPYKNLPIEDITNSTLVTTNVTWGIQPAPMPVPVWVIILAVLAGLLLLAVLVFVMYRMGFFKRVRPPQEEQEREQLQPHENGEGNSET
integrin αvβ3, sequence (P05106 27-788): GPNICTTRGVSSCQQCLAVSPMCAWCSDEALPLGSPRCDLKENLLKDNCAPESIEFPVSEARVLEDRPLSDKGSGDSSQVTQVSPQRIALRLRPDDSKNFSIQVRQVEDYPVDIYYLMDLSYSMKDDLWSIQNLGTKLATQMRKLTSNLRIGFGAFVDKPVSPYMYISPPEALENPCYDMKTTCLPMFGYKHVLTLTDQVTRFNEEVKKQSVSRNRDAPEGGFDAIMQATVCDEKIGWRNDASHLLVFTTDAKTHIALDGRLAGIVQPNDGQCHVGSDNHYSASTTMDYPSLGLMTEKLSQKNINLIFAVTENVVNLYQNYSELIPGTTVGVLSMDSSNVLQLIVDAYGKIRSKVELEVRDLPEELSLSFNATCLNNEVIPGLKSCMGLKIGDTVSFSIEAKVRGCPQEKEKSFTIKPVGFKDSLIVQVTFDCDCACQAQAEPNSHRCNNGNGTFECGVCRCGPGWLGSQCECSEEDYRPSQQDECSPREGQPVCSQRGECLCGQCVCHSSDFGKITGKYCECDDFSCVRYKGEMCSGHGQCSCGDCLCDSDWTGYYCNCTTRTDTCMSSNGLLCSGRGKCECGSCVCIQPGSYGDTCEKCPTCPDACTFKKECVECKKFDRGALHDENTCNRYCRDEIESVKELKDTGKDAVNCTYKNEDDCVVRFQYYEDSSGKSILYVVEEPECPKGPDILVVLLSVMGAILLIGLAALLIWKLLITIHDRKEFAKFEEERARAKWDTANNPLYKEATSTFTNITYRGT
Procedure: (§3) Antibody affinity is evaluated using an in vitro cell adhesion assay. 48 well tissue culture plates were coated with the integrin avβ3 ligand fibrinogen or the integrin β1 ligand type I collagen, and 2000-10000 cells were added in the presence of each antibody for a range of 2-fold dilutions starting at 5 μg/mL in duplicate. Plates were washed at the endpoint and cells attached to the substrate detected using crystal violet.
(§4) Each antibody was tested for its ability to prevent the adhesion of integrin αvβ3-expressing tumor cells to the αvβ3-mediated adhesion to fibrinogen as well as the β1-integrin mediated adhesion to type I collagen.

[3] = test system: human FcγRIII; assay: Promega ADCC Reporter Bioassay, FcγRIII (FIG. 7); assay type: cell-based; conditions: target cells: integrin avβ3-expressing human pancreatic cancer cells; Raji effector line with NFAT-induced luciferase
Procedure: as §1, §2

[4] = biological target: integrin β1 (Homo sapiens, UniProt P05556); assay: In vitro cell adhesion assay on type I collagen (FIG. 8); assay type: cell-based; design: endogenous in cells; conditions: 2-fold dilutions starting at 5 μg/mL
integrin β1, sequence (P05556 21-798): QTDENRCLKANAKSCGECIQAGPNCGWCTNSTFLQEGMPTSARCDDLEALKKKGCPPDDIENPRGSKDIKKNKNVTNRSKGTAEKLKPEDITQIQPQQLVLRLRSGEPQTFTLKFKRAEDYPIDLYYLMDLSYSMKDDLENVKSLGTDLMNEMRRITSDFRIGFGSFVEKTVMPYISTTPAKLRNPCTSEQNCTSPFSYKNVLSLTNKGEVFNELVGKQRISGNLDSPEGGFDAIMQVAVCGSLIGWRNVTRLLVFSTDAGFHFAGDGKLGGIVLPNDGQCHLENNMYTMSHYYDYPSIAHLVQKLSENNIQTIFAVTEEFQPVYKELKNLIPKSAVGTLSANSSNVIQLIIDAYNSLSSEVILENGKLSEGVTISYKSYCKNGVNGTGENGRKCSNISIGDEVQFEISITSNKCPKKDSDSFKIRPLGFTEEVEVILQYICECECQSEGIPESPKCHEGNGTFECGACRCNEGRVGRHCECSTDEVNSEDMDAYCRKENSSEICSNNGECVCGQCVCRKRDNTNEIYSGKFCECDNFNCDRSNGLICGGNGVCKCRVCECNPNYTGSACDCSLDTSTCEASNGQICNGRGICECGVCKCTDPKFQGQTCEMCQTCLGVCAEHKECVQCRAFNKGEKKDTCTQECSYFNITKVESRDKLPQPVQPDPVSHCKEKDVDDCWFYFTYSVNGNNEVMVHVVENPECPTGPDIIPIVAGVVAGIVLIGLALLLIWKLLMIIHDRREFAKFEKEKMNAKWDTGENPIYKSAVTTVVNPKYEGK
Procedure: as §3, §4

[5] = test system: αvβ3-expressing human lung cancer cells; assay: In vitro ADCC, human NK cells as effector cells (FIG. 10B); assay type: cell-based; conditions: increasing E:T
Excerpt: (A) In vitro ADCC for primary human monocyte-derived macrophages as effector cells. (B). In vitro ADCC for human NK cells as effector cells. Graphs show effect of increasing effector-to-target ratio (E:T) on death of αvβ3-expressing human lung cancer cells.
This distinction could produce a therapeutic advantage by achieving matching between the antigen (integrin αvβ3) and the types of effector cells that are particularly enriched in αvβ3-expressing tumors, such as macrophages.

[6] = test system: HCC827 αvβ3-negative human EGFR mutant lung cancer cells; assay: HCC827 xenograft, delay of onset of erlotinib resistance; assay type: in vivo, nu/nu mice; conditions: erlotinib alone, oral, 6.25 mg/kg, six times/week
Procedure: Briefly, HCC827 (5×10^6 tumor cells in 100 μl of PBS) αvβ3-negative human EGFR mutant lung cancer cells were subcutaneously injected to the right flank of female nu/nu mice (Charles River, 088, 8-10 weeks old). Tumors were measured with calipers twice per week. […] Tumors were placed into liquid nitrogen, OCT compound, or 10% formalin.

Molecule	FcγRI activation on effector cells [1]	αvβ3-mediated adhesion to fibrinogen ([2]; 2-fold dilutions starting at 5 μg/mL)	antibody affinity, shown by ability to block αvβ3-dependent cell adhesion ([2]; comparison of isotype variants)	FcγRIII activation on effector cells [3]	β1-integrin mediated adhesion to type I collagen [4]	ADCC with human NK cells as effector cells [5]	tumor size [6]
hLM609-hIgG1: humanized LM609, hIgG1 isotype (etaracizumab/Vitaxin); heavy chain SEQ ID NO:9, light chain SEQ ID NO:10 [reference compound]	lower levels of engagement	blocked adhesion to fibrinogen	equivalent	can strongly activate FcγRIII	without disrupting β1-mediated adhesion to collagen	engages NK cells	–
C#Cc1cccc(Nc2ncnc3cc(OCCOC)c(OCCOC)cc23)c1 [erlotinib]	–	–	–	–	–	–	initial reduction in tumor size, this is followed by an eventual tumor re-growth
